Test results: publication PMC4429812 (Biochemistry, 2015)
Values joined by “and” are separate entries in the source; they are usually repeats but may differ in a detail not shown here. Equal entries are not always repeated.

Key:
[1] = biological target: amphiphysin clathrin-box peptide clathrin-box peptide (UniProt P49418); details: cited from earlier work
[2] = biological target: T1, clathrin N-terminal domain (TD) of the clathrin heavy chain, bovine, residues 1-363 (bovine, UniProt P49951 1-363); assay: NMR titration
T1 sequence (looked up): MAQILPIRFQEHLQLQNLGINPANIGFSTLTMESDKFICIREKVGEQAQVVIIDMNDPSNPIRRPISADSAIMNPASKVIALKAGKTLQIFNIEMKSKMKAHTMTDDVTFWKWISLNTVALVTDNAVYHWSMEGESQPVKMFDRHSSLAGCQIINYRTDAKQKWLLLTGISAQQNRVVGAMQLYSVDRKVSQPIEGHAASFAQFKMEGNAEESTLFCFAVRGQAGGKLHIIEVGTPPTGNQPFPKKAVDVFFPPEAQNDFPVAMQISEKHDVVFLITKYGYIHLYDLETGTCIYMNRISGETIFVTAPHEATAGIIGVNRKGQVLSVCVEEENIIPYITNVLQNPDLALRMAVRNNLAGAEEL

[3] = biological target: T1, clathrin N-terminal domain (TD) of the …; assay: ITC

amphiphysin clathrin-box peptide clathrin-box peptide, sequence (P49418 whole entry, looked up, the tested form may be a part): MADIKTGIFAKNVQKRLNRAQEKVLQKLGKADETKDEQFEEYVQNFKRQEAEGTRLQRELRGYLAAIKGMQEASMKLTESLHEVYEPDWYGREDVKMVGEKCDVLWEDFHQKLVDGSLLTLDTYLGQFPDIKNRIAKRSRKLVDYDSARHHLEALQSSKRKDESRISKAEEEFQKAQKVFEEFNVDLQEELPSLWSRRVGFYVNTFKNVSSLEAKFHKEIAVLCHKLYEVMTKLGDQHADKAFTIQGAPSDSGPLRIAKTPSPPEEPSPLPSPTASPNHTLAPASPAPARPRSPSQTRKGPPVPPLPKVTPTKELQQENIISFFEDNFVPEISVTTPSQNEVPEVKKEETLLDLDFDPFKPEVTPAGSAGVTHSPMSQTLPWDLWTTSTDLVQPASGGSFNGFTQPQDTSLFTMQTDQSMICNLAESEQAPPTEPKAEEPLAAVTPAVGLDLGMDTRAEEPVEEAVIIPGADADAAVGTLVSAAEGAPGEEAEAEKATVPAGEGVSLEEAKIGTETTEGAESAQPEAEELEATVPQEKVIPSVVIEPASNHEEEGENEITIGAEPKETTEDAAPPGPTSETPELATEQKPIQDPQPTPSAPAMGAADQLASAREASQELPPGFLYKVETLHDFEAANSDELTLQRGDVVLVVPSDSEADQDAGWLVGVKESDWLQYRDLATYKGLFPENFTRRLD

Molecule	Kd [1]	Kd [2]	stoichiometry N [2]	Kd [3]	dH [3]	stoichiometry N [3]
clathrin heavy chain N-terminal domain (from UniProt P49951)	22 µM	–	–	–	–	–
CPQAVASSSASADLLAGFGGSFMAPS [AP180 peptide 2 (residues 655-679 of mouse AP180)]	–	899 ± 529 µM	3.7 ± 0.6	–	–	–
CSPAKAESSGVIDLFGDAFGSGASETQ [AP180 peptide 1 (residues 627-652 of mouse AP180)]	–	829 ± 221 µM	3.9 ± 0.3	–	–	–
CQVIPSQGDLLGDLLNLDLGPPVNVPQ [AP2 peptide (clathrin-box peptide from the hinge of the AP2 β2 subunit, residues 619-644)]	–	867 ± 246 µM	2.6 ± 0.4	420 µM and 474 µM	-2.8 kcal/mol	3.01 and 3
